Assay results: FireProtDB (doi:10.1038/9384)

B1: Acyl-CoA-binding protein, P07107 (parent)
chain: MSQAEFDKAAEEVKHLKTKPADEEMLFIYSHYKQATVGDINTERPGMLDFKGKAKWDAWNELKGTSKEDAMKAYIDKVEELKKKYGI

Variants of: B1
Conditions: Bos taurus; pH 5.3; 5 °C; GdnHCl; Fluorescence; Sodium acetate 0.02 M; structure 2ABD; whole UniProt chain shown

Row | Variant | ddG of mutation (higher = less stable) [kcal/mol] | denaturant m value [kcal/mol/M] | unfolding free energy [kcal/mol]
1 | F27A | 1.53 | 3.8 | 6.55
2 | L26A | 2.02 | 3.36 | 6.06
3 | V78A | 1.54 | 3.78 | 6.54
4 | Y74F | -0.03 | 3.31 | 8.11
5 | I75A | 1.34 | 3.91 | 6.74
6 | T36A | 1.28 | 3.93 | 6.8
7 | A10G | 2 | 3.4 | 6.08
8 | D22A | 0.4 | 3.32 | 7.68
9 | L16A | 3.57 | 3.19 | 4.51
10 | I40A | 1.06 | 3.51 | 7.02
11 | Q34A | 3.03 | 4.49 | 5.05
12 | Y29N | 2.47 | 3.65 | 5.61
13 | Y29F | 1.26 | 3.56 | 6.82
14 | Y29A | 2.52 | 3.97 | 5.56
15 | K55M | 0.22 | 3.33 | 7.86
16 | K55A | 1.41 | 3.15 | 6.67
17 | K33E | 1.47 | 3.42 | 6.61
18 | K33A | 1.61 | 3.39 | 6.47
19 | F6A | 2.63 | 3.51 | 5.45
20 | Y32N | 0.97 | 4.95 | 7.11
21 | V13A | 1.5 | 3.47 | 6.58
22 | P20A | 0.91 | 3.3 | 7.17
23 | E68A | 0.8 | 3.45 | 7.28
24 | L81A | 4.57 | 3.08 | 3.51
25 | K53M | -0.48 | 3.71 | 8.56
